The values that follow come from paper PMC11855083.

The target in the data set is T1, His6-NfxB (Pseudomonas aeruginosa PAO1?) (UniProt P32265).
T1 sequence: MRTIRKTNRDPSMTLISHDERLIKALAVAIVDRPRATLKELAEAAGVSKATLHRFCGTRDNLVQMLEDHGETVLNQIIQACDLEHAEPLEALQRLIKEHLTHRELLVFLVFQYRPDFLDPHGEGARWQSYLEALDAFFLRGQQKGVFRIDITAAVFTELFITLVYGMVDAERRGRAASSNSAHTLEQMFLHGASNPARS
Description: EMSA. The conditions noted are these: pH 7.0, room temperature, 10 min ([…].
As to “ACGCAAATCAGCCATGACACACCCGACCGTTGATTGAAAACGGATCGAATGGTACTTTTTCGAGCTAATTGAGTCAATATTGTCTCAAATGATCTTTTGACAGCTAATTCCTTTGGACGCGAGGCCAGTTTTCTGCACAATGCGCACAATCAGAAAAACCAACCGGGACCCATCGATGACCCTGAT (double strand) [mexC promoter]”, the binding entry is reported as “binds”.

On to “ATCTTTCCTCCCGTGTGGCTCGCGCCACTACGCTATGCAAGCGCCCGCCACCATGGCAGGCGCTGTCGTTGAATGCCTCAGGCCTCTTTGGCCGAAGGCAGCTTGGA (double strand) [hcp1T (hcp1 promoter with potential NfxB motif truncated)]”, for which the binding entry was “no binding”.

As for “TCCAAGCTGCCTTCGGCCAAAGAGGCCTGAGGCATTCAACGACAGCGCCTGCCATGGTGGCGGGCGCTTGCATAGCGTAGTGGCGCGAGCCACACGGGAGGAAAGATGGCTGTTGATATGTTCATCAAGATCGGC (double strand) [hcp1 promoter (phcp1)]”, the binding result was “binds”.
